{"source": "patent US20240383953A1", "about": "“NOVEL NAN[…] NANOG PRION-LIKE REPEATS” (BAYLOR COLLEGE OF MEDICINE, priority 2021, published 2024)", "molecules": {"B1": {"name": "NANOG CTD: C-terminal domain construct of human NANOG, contains the WR prion-like domain (protein)", "chain": "QKNNWPKNSNGVTQKASAPTYPSLYSSYHQGCLVNPTGNLPMWSNQTWNNSTWSNQTQNIQSWSNHSWNTQTWCTQSWNNQAWNSPFYNCGEESLQSCMQFQPNSPASDLEAALEAAGEGLNVIQQTTRYFSTPQTMDLFLNYSMNMQPEDV"}}, "key": {"[1]": {"assay": "ThT fluorescence aggregation kinetics of NANOG CTD", "format": "physicochemical, human"}, "[2]": {"assay": "Gel-like condensate formation of NANOG CTD", "format": "physicochemical, human", "settings": "absence of crowding agents"}}}
{"molecule": "B1", "values": [{"measurement": "ThT aggregation time constant (1/R)", "setting": "[1]; 1.2 μM CTD (n=9)", "result": "4.8 ± 0.2", "unit": "min"}, {"measurement": "ThT aggregation time constant (1/R)", "setting": "[1]; 2.4 μM CTD (n=6)", "result": "9.5 ± 0.1", "unit": "min"}, {"measurement": "concentration at which gel-like condensates form", "setting": "[2]", "result": 5, "unit": "µM"}]}
